T1: Cyno MUC17 ECD3577-mFc (mFc-tagged cynomolgus monkey MUC17 protein extracellular region fusion protein) (cynomolgus monkey)
T1 construct: also called monkey MUC17-mFc protein; Monkey MUC17-ECD3577-mFc protein
T1 chain: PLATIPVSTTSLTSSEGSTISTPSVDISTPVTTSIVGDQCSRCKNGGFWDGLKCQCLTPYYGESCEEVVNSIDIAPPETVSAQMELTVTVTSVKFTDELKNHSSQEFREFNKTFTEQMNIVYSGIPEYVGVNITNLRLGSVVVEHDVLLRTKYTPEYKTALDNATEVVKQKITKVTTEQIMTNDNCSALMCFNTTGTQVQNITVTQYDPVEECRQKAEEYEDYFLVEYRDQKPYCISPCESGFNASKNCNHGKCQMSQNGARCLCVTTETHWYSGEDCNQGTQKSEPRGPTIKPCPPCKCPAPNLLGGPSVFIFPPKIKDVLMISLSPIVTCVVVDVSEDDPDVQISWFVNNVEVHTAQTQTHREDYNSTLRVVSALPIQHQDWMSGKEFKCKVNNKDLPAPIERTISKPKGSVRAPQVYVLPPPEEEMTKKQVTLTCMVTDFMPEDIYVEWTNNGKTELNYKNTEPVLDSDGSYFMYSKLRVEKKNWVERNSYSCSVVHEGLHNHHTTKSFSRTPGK

B1: Bis 57 (bispecific antibody, human IgG1, kappa)
heavy: EVQLVESGGGVVQPGRSLRLSCAASGFTFTDYYMSWVRQAPGKGLEWVAMSRNKAKGHTIEYSSSVKGRFTISRDNSKNTLYLQMNSLRAEDTAVYYCARDTYESYDGYFDVWGQGTTVTVSSASTKGPSVFPLAPSSKSTSGGTAALGCLVKDYFPEPVTVSWNSGALTSGVHTFPAVLQSSGLYSLSSVVTVPSSSLGTQTYICNVNHKPSNTKVDKKVEPKSCDKTHTCPPCPAPEAAGAPSVFLFPPKPKDTLMISRTPEVTCVVVDVSHEDPEVKFNWYVDGVEVHNAKTKPREEQYNSTYRVVSVLTVLHQDWLNGKEYKCKVSNKALPAPIEKTISKAKGQPREPQVYTLPPSREEMTKNQVSLWCLVKGFYPSDIAVEWESNGQPENNYKTTPPVLDSDGSFFLYSKLTVDKSRWQQGNVFSCSVMHEALHNHYTQKSLSLSPG
light: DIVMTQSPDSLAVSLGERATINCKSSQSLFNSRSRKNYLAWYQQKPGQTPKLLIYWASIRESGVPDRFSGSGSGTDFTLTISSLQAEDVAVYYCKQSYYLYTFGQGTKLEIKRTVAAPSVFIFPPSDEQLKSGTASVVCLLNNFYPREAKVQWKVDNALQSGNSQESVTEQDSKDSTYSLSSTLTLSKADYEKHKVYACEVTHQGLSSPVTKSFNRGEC
chain: EVQLVESGGGLVQPGRSLRLSCAASGDITRRCMGWFRQAPGKEREGVAGISEDGITIYADSVKGRFTISKDNAKNSLYLQMNSLRAEDTALYSCAASILNRVGCRQLSYEYIYRGQGTMVTVSSGGGDKTHTCPPCPAPEAAGAPSVFLFPPKPKDTLMISRTPEVTCVVVDVSHEDPEVKFNWYVDGVEVHNAKTKPREEQYNSTYRVVSVLTVLHQDWLNGKEYKCKVSNKALPAPIEKTISKAKGQPREPQVYTLPPSREEMTKNQVSLSCAVKGFYPSDIAVEWESNGQPENNYKTTPPVLDSDGSFFLVSKLTVDKSRWQQGNVFSCSVMHEALHNHYTQKSLSLSPG
notes: Three-chain asymmetric MUC17xCD3 bispecific
B2: Bis 59 (bispecific antibody, human IgG1, kappa)
heavy: EVQLVESGGGVVQPGRSLRLSCAASGFTFTDYYMSWVRQAPGKGLEWVAMSRNKAKGHTIEYSSSVKGRFTISRDNSKNTLYLQMNSLRAEDTAVYYCARDTYESYDGYFDVWGQGTTVTVSSASTKGPSVFPLAPSSKSTSGGTAALGCLVKDYFPEPVTVSWNSGALTSGVHTFPAVLQSSGLYSLSSVVTVPSSSLGTQTYICNVNHKPSNTKVDKKVEPKSCDKTHTCPPCPAPEAAGAPSVFLFPPKPKDTLMISRTPEVTCVVVDVSHEDPEVKFNWYVDGVEVHNAKTKPREEQYNSTYRVVSVLTVLHQDWLNGKEYKCKVSNKALPAPIEKTISKAKGQPREPQVYTLPPSREEMTKNQVSLWCLVKGFYPSDIAVEWESNGQPENNYKTTPPVLDSDGSFFLYSKLTVDKSRWQQGNVFSCSVMHEALHNHYTQKSLSLSPG
light: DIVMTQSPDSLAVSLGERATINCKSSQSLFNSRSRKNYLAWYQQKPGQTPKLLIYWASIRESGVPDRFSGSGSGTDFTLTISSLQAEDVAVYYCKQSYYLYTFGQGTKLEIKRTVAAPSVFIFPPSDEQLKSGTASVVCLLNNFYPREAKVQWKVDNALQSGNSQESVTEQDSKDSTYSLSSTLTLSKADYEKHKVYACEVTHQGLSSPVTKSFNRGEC
chain: EVQLVESGGGVVQPGGSLRLSCAASGDTFSRGSWGWFRQAPGKEREAVALISSDGWTFYADSVKGRFTISQDNSKNTLYLQMNSLRAEDTAVYYCAASVLVLRTLNPKAWHHWGQGTMVTVSSGGGDKTHTCPPCPAPEAAGAPSVFLFPPKPKDTLMISRTPEVTCVVVDVSHEDPEVKFNWYVDGVEVHNAKTKPREEQYNSTYRVVSVLTVLHQDWLNGKEYKCKVSNKALPAPIEKTISKAKGQPREPQVYTLPPSREEMTKNQVSLSCAVKGFYPSDIAVEWESNGQPENNYKTTPPVLDSDGSFFLVSKLTVDKSRWQQGNVFSCSVMHEALHNHYTQKSLSLSPG
notes: as for B1
B3: Bis 92 (bispecific antibody, human IgG1, kappa)
heavy: EVQLVESGGGVVQPGRSLRLSCAASGFTFTDYYMSWVRQAPGKGLEWVAMSRNKAKGHTIEYSSSVKGRFTISRDNSKNTLYLQMNSLRAEDTAVYYCARDTYESYDGYFDVWGQGTTVTVSSASTKGPSVFPLAPSSKSTSGGTAALGCLVKDYFPEPVTVSWNSGALTSGVHTFPAVLQSSGLYSLSSVVTVPSSSLGTQTYICNVNHKPSNTKVDKKVEPKSCDKTHTCPPCPAPEAAGAPSVFLFPPKPKDTLMISRTPEVTCVVVDVSHEDPEVKFNWYVDGVEVHNAKTKPREEQYNSTYRVVSVLTVLHQDWLNGKEYKCKVSNKALPAPIEKTISKAKGQPREPQVYTLPPSREEMTKNQVSLWCLVKGFYPSDIAVEWESNGQPENNYKTTPPVLDSDGSFFLYSKLTVDKSRWQQGNVFSCSVMHEALHNHYTQKSLSLSPG
light: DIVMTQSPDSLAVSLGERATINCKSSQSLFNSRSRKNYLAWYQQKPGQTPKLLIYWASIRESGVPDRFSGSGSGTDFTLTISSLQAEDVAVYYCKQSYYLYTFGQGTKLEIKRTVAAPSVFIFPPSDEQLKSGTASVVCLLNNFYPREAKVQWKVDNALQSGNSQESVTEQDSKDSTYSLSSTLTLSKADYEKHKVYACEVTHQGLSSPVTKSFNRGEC
chain: EVQLVESGGGVVQPGGSLRLSCAASGYTSNRYSMAWFRQAPGKEREVVAFIWTDGGRTYYADSVKGRFTISRDNSKNTLYLQMNSLRAEDTAVYYCAASSLLLQTINPRAWPYWGQGTMVTVSSGGGDKTHTCPPCPAPEAAGAPSVFLFPPKPKDTLMISRTPEVTCVVVDVSHEDPEVKFNWYVDGVEVHNAKTKPREEQYNSTYRVVSVLTVLHQDWLNGKEYKCKVSNKALPAPIEKTISKAKGQPREPQVYTLPPSREEMTKNQVSLSCAVKGFYPSDIAVEWESNGQPENNYKTTPPVLDSDGSFFLVSKLTVDKSRWQQGNVFSCSVMHEALHNHYTQKSLSLSPG
notes: as for B1
B4: antiFITCx CD3 negative control (bispecific antibody, human IgG1, kappa)
heavy: EVQLVESGGGVVQPGRSLRLSCAASGFTFTDYYMSWVRQAPGKGLEWVAMSRNKAKGHTIEYSSSVKGRFTISRDNSKNTLYLQMNSLRAEDTAVYYCARDTYESYDGYFDVWGQGTTVTVSSASTKGPSVFPLAPSSKSTSGGTAALGCLVKDYFPEPVTVSWNSGALTSGVHTFPAVLQSSGLYSLSSVVTVPSSSLGTQTYICNVNHKPSNTKVDKKVEPKSCDKTHTCPPCPAPEAAGAPSVFLFPPKPKDTLMISRTPEVTCVVVDVSHEDPEVKFNWYVDGVEVHNAKTKPREEQYNSTYRVVSVLTVLHQDWLNGKEYKCKVSNKALPAPIEKTISKAKGQPREPQVYTLPPSREEMTKNQVSLWCLVKGFYPSDIAVEWESNGQPENNYKTTPPVLDSDGSFFLYSKLTVDKSRWQQGNVFSCSVMHEALHNHYTQKSLSLSPG
light: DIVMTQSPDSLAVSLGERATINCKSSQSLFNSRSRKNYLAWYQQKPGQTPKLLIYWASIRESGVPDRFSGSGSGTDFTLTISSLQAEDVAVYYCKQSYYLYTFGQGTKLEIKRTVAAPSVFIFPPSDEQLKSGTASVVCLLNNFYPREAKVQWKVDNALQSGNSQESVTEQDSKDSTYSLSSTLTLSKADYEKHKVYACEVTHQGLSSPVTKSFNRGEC
chain: EVKLDETGGGLVQPGRPMKLSCVASGFTFSDYWMNWVRQSPEKGLEWVAQIRNKPYNYETYYSDSVKGRFTISRDDSKSSVYLQMNNLRVEDMGIYYCTGSYYGMDYWGQGTSVTVSSGGGGSGGGGSGGGGSDVVMTQTPLSLPVSLGDQASISCRSSQSLVHSNGNTYLRWYLQKPGQSPKVLIYKVSNRFSGVPDRFSGSGSGTDFTLKISRVEAEDLGVYFCSQSTHVPWTFGGGTKLEIKGGGDKTHTCPPCPAPEAAGAPSVFLFPPKPKDTLMISRTPEVTCVVVDVSHEDPEVKFNWYVDGVEVHNAKTKPREEQYNSTYRVVSVLTVLHQDWLNGKEYKCKVSNKALPAPIEKTISKAKGQPREPQVYTLPPSREEMTKNQVSLSCAVKGFYPSDIAVEWESNGQPENNYKTTPPVLDSDGSFFLVSKLTVDKSRWQQGNVFSCSVMHEALHNHYTQKSLSLSPG
notes: Negative control with the same anti-CD3 arm and an anti-FITC scFv in place of the MUC17 VHH

Columns and labels:
[1] = target: T2, Human CD3e-His protein (Sino Biological, CAT #10977-H08H) (human, UniProt P07766 23-126); assay: ELISA, human CD3e-His coated on the plate, OD450
T2 construct: Bought reagent; also called human CD3e protein

[2] = target: T3, human MUC17 on endogenous tumor cells (NUGC4, SNU16, ASPC1) (human); assay: FACS on AspC-1 cells (endogenous human MUC17), MFI
T3 construct: whole, on cells; also called MUC17-positive tumor cells

[3] = target: T3, human MUC17 on endogenous tumor cells …; assay: cell-based or functional assay
[4] = target: T3, human MUC17 on endogenous tumor cells …; assay: FACS on SNU16 cells (endogenous human MUC17), MFI
[5] = target: T1, Cyno MUC17 ECD3577-mFc (mFc-tagged …); assay: ELISA, cynomolgus MUC17-mFc coated on the plate, OD450
[6] = target: T4, Human MUC17 ECD4131-his (His-tagged human MUC17 protein extracellular region fusion protein) (human, UniProt Q685J3 4131-4393); assay: ELISA, human MUC17-his coated on the plate, OD450
T4 construct: also called human MUC17-his protein; Human MUC17-ECD(4131-4393)-His protein

[7] = target: T5, monkey MUC17 on FlpinCHO-cynoMUC17-D1 cells (monkey); assay: FACS on FlpinCHO-cynoMUC17-D1 cells, MFI
T5 construct: On cells; also called recombinant cells overexpressing monkey MUC17

[8] = target: T1, Cyno MUC17 ECD3577-mFc (mFc-tagged …); assay: SPR (Biacore 8K), antibody captured on Protein A, antigen injected, 25 C, 1:1 model
[9] = target: T4, Human MUC17 ECD4131-his (His-tagged …); assay: as above
[10] = target: T3, human MUC17 on endogenous tumor cells …; assay: FACS on NUGC4 cells (endogenous human MUC17), MFI
[11] = target: T6, human MUC17 fragment on FlpinCHO-huMUC17-D1 cells (human); assay: FACS on FlpinCHO-huMUC17-D1 cells, MFI
T6 construct: On cells; also called cells overexpressing human MUC17

T2 sequence (P07766 23-126 limits assumed): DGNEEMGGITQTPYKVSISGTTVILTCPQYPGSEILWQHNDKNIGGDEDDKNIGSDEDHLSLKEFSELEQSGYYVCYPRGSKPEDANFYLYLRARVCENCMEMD

| Binder | binding result [1] | EC50 (read off the curve) [2] [nM] | PBMC-mediated in vitro tumor cell killing EC50, ASPC-1 [3] [nM] | PBMC-mediated in vitro tumor cell killing EC50, NUGC4 [3] [nM] | PBMC-mediated in vitro tumor cell killing EC50, SNU16 [3] [nM] | EC50 (read off the curve) [4] [nM] | EC50 (read off the curve) [5] [nM] | EC50 (read off the curve) [6] [nM] | EC50 (read off the curve) [7] [nM] | Kd [8] [nM] | koff [8] [s⁻¹] | kon [8] [M⁻¹ s⁻¹] | Kd [9] [nM] | koff [9] [s⁻¹] | kon [9] [M⁻¹ s⁻¹] | EC50 (read off the curve) [10] [nM] | EC50 (read off the curve) [11] [nM] | binding result [6] |
| --- | --- | --- | --- | --- | --- | --- | --- | --- | --- | --- | --- | --- | --- | --- | --- | --- | --- | --- |
| B1 | binds | ~0.3 | 0.011 | 0.024 | 0.017 | ~0.3 | ~0.04 | ~0.05 | ~8 | 4.71 | 0.00016 | 33900 | 0.289 | 4.86e-05 | 168000 | ~1 | ~2 |  |
| B2 | binds | ~0.2 | 0.0073 | 0.0166 | 0.0126 | ~0.2 | ~0.2 | ~0.05 |  | 25.6 | 0.000866 | 33900 | 0.219 | 9.74e-05 | 445000 | ~0.6 | ~1 |  |
| B3 | binds | ~0.08 | 0.00739 | 0.00779 |  | ~0.08 | ~0.09 | ~0.05 | ~20 | 13.4 | 0.000511 | 38100 | 0.136 | 7.81e-05 | 572000 | ~0.2 | ~1 |  |
| B4 | binds |  |  |  |  |  |  |  |  |  |  |  |  |  |  |  |  | no binding |

From patent US20260226191A1 (SHANDONG SIMCERE BIOPHARMACEUTICAL, published 2026)
